A short description of data set [1]: folding stability dG unfold from trypsin proteolysis; higher = more stable. The method, boiled down:
(§1)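 Unfolding free energy was derived, per protease or combined, against a sequence-predicted unfolded-state K50 and a shared folded-state K50, starting from K50 inferred by Bayesian fitting of sequencing counts. Digestion with trypsin and chymotrypsin was carried out on designed mini-proteins under 80 residues without cysteine in a PA-tagged cDNA display construct. Only designs with AlphaFold2 dimer inter-PAE above 15 were kept.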

Data set [2] in a line: folding stability dG unfold from chymotrypsin proteolysis; higher = more stable. Summed up:
as §1

Data set [3] is described as follows: folding stability dG unfold (combined trypsin and chymotrypsin); higher = more stable. Summed up: as §1

± gives the half width of the 95% confidence interval.

As for “SAGMPLYRIRVHPDIPDRIEITEVDAEDLPPGAVLKIRFRETGETVEVPLSDLDELLALPGIEEVELVSAGG [r19_302_TrROS_Hall]”, the entries for the “folding stability dG unfold” value in data set [1], in data set [2] and in data set [3] were 0.305 ± 0.077 kcal/mol, 1.11 ± 0.13 kcal/mol and 0.841 ± 0.12 kcal/mol, respectively.
For “SAGMPPTTVEVKVTVVKTPEGYEVVAEVVTPDRTETLTIPPHLGLEEAKARLEAVLAERGLTLVDWTLESAG [r5_305_JUSTAS]”, in that order: 2.71 ± 0.047 kcal/mol, 2.65 ± 0.041 kcal/mol and 2.65 ± 0.057 kcal/mol.
For “SAGMPSVTVTPVTVTVEGTAPPDLTEEELRADPTYTRTVEIDATVTLYPETGTVTVTLPGGVTVTLPSPSAG [r5_701_JUSTAS]”, in that order: 0.432 ± 0.075 kcal/mol, 0.929 ± 0.031 kcal/mol and 0.79 ± 0.095 kcal/mol.
“SAGMPVITTTEELPGGLTVTTTTYPPGDTTTTVTSPEGNVTTTTTTTTPTPTPTTTTTTTTTTTPVPPASAG [r5_944_JUSTAS]”: the entries for the “folding stability dG unfold” value in data set [1], in data set [2] and in data set [3] were 1.56 ± 0.14 kcal/mol, 1.26 ± 0.099 kcal/mol and 1.44 ± 0.26 kcal/mol, respectively.
With “SAGMSMSVSVTKDPNSNSITIKVTMPVEPDAVLDLPIKVEVPEKEYEMTVEVTLSPDGLASMTGTITLPSAG [r5_596_JUSTAS]”, the “folding stability dG unfold” value in data set [1] is 2.74 ± 0.15 kcal/mol; in data set [2], 2.04 ± 0.056 kcal/mol; in data set [3], 2.41 ± 0.18 kcal/mol.
For “SAGMTEVAKEIADTLAEQFPPGYKIDDIKVQPLPDNMFRVPITIKRRDPNGKPRGPRQIEIWIPPEQFSAGG [r19_28_TrROS]”, in that order: 0.755 ± 0.053 kcal/mol, 0.21 ± 0.17 kcal/mol and 0.532 ± 0.11 kcal/mol.
Take “SAGMTFEVRYPLPPGQTHKEAREEVKDMVESIAREFMPEGWKIEPKDIDVDPDKGWIEYKVDIEIPPGMSAG [r5_146_TrROS]”: the “folding stability dG unfold” value was determined as 1.19 ± 0.12 kcal/mol in data set [1], 1.94 ± 0.12 kcal/mol in data set [2] and 1.72 ± 0.18 kcal/mol in data set [3].
For “SAGMTIEIEIPASTSAEEAVERVEAIVEEVRKAGKKFELTIKTSDPALAAAVRAALEAAGVPVTVEVDSAGG [r19_268_JUSTAS]”, in that order: 4.07 ± 0.12 kcal/mol, 2.48 ± 0.033 kcal/mol and 3.28 ± 0.066 kcal/mol.
For “SAGMTIIKIEFPDGSKATVDPTNPSTMTITDPNGNTTVLNLTGVEEAKKQLIETLKKETGLPVKKVEVESAG [r5_119_JUSTAS]” the same measures were 0.493 ± 0.045 kcal/mol, 1.38 ± 0.049 kcal/mol and 1.14 ± 0.088 kcal/mol.
For “SAGMTIILVGPNAKEAVEKVAEELRKRDVGPPVTVLVLEPGGKPVLRARVERRPPDPDRFVVTVEPVESAGG [r19_85_TrMRF]” the same measures were 0.689 ± 0.079 kcal/mol, 1.41 ± 0.11 kcal/mol and 1.27 ± 0.098 kcal/mol.
With “SAGMTITIPAPPSLSPEEAVALAIERVKEEYPELLTPGSEVNIVVIREDPATGTSQTLTVTVPFPEGIFSAG [r5_916_JUSTAS]”, the “folding stability dG unfold” value turned out to be 1.98 ± 0.045 kcal/mol in data set [1], 1.57 ± 0.044 kcal/mol in data set [2] and 1.79 ± 0.086 kcal/mol in data set [3].
For “SAGMTITTTTPAEAAALAEELAKKNPVLNVTITVVDPETGTVTTIPFAVPAPLPRPYFDPETGEVTLEGSAG [r5_870_TrMRF]” the same measures were 1.1 ± 0.033 kcal/mol, 0.193 ± 0.18 kcal/mol and 0.779 ± 0.11 kcal/mol.
For “SAGMTITVKPGEKVKVTIKVEVFDENGKLIKKEEKEVEITVKEGDEITIKIKLDKPVKVKIEIKIEKKSAGG [r19_295_TrROS_Hall]” the same measures were 2.67 ± 0.17 kcal/mol, 2.01 ± 0.15 kcal/mol and 2.29 ± 0.25 kcal/mol.
Consider “SAGMTIVIGAPPELSLEEAVEKAIEAVEALFPDKLKPGSKIKVIVRVYDPETGSVDEVTVEIDVPPGALSAG [r5_916_TrMRF]”, for which the results for the “folding stability dG unfold” value in data set [1], in data set [2] and in data set [3] were 3.35 ± 0.22 kcal/mol, 1.99 ± 0.11 kcal/mol and 2.65 ± 0.1 kcal/mol, respectively.
For “SAGMTIVVEVPKKDITPEELAKKLEERFGLKVVEIKVEEVEEDKVRVTIRFEETGETLELTAEEIKELLSAG [r5_550_TrROS_Hall]” the same measures were 4.6 ± 0.34 kcal/mol, 3.81 ± 0.17 kcal/mol and 4.19 ± 0.16 kcal/mol.
For “SAGMTLKEEEFELPDGSRRIRLTFTSEEELAAKLKELGFEKFNPLSPSESVDVTIPPDGVLSESLPKEGSAG [r5_941_JUSTAS]”, in that order: 0.651 ± 0.061 kcal/mol, 1.86 ± 0.066 kcal/mol and 1.42 ± 0.11 kcal/mol.
Turning to “SAGMTLTLELPVPPDMSEEEARALALARVREEVAALSPGGATVTPVAVSVDPETGTVSLEVEVEVPPLASAG [r5_146_JUSTAS]”, the “folding stability dG unfold” value came to 1.17 ± 0.032 kcal/mol in data set [1], 1.45 ± 0.042 kcal/mol in data set [2] and 1.35 ± 0.037 kcal/mol in data set [3].
For “SAGMTLVAVNRETGEVNVIELDPEDPELVTVTYPNGEKETFPLAEIAERLGLPVSLLLNDYDIERIYGSSAG [r5_156_TrMRF]”, in that order: 1.95 ± 0.086 kcal/mol, 1.38 ± 0.057 kcal/mol and 1.71 ± 0.084 kcal/mol.
For “SAGMTVSTETTTFTDPAGFETTVTTLTTTHPDGSVTSTPTTTVTAVPVPPPPAPVPVDPANPDNPALLSAGG [r19_12_JUSTAS]” the same measures were 0.461 ± 0.038 kcal/mol, -0.509 ± 0.095 kcal/mol and 0.163 ± 0.025 kcal/mol.
Regarding “SAGMVATLYDPNLPPVSVGITETVTVPHPEGFTVTVTLSSDGTATVTPSDGSSTTLPDASEVRVTATPASAG [r5_869_JUSTAS]”, the “folding stability dG unfold” value in data set [1] stood at 1.31 ± 0.035 kcal/mol; in data set [2], 0.921 ± 0.021 kcal/mol; in data set [3], 1.1 ± 0.044 kcal/mol.
For “SAGMVEVLEEKTDPNSDLVTVTLYAPDVPDGFRVVVYPKDGVPIEISIKRGEEVVLKLPANVEKIEFIGSAG [r14_671_JUSTAS]” the same measures were 2.55 ± 0.083 kcal/mol, 2.41 ± 0.044 kcal/mol and 2.51 ± 0.092 kcal/mol.
For “SAGMVEVTVTIIPKKVKDKWVNEAVVSITVPGGPTSTITMPFGSKEEAIKYLKEKGLEVSEENVSVEIESAG [r5_233_JUSTAS]”, in that order: 2.31 ± 0.12 kcal/mol, 3.395 ± 0.028 kcal/mol and 3.23 ± 0.097 kcal/mol.
For “SAGMVIELKTEEEAKAKAEEIAKKNPEANVTLVVTDPETGVKTVIPVKIESPKPKPEFDKKNGKYKDKGSAG [r5_870_JUSTAS]”, in that order: -0.126 ± 0.2 kcal/mol, -0.455 ± 0.45 kcal/mol and -0.0134 ± 0.35 kcal/mol.
Take “SAGMVIKVKVKNKDGEELELVIEIPEEELPEELTEEELKELAKKLAEELAKEGKVEVVEVEIVEPEELSAGG [r19_27_TrROS_Hall]”: the “folding stability dG unfold” value in data set [1] was found to be 2.39 ± 0.26 kcal/mol; in data set [2], 1.8 ± 0.13 kcal/mol; in data set [3], 2.03 ± 0.25 kcal/mol.
Regarding “SAGMVIPILLKPEPERPEEVEKKAIEFANKLKPLNLPNVKIKVYRAPYVDPETGKTTVLYLVLIEVEPPSAG [r5_49_TrMRF]”, the figures for the “folding stability dG unfold” value in data set [1], in data set [2] and in data set [3] were 1.83 ± 0.1 kcal/mol, 2.79 ± 0.13 kcal/mol and 2.4 ± 0.19 kcal/mol, respectively.
For “SAGMVITVPSDVPVEELLELARELARELGGGRVEVRTHPDNPEIVTATIDIPGTGKRILIINAPPGVLASAG [r5_912_TrMRF]”, in that order: 2.66 ± 0.038 kcal/mol, 2.37 ± 0.028 kcal/mol and 2.52 ± 0.048 kcal/mol.
